Measured values: PMC10434055, “Functional Characterization of Small Alarmone Synthetase and Small Alarmone Hydrolase Proteins from Treponema denticola” (Microbiology Spectrum, 2023)
Read-outs that look alike come from different tables or passages of the source. One block for each molecule: values may come before it.

Assays:
[1] = test system: T1, Tde-SAS1–246; test: AMP by-product quantified by Mono Q anion-exchange chromatography; assay type: biochemical, Treponema denticola; conditions: 5 mM ATP, 10 mM MgCl2, pH 8.8, 37 °C, no added alarmone
T1 construct: gene TDE1711; N-terminal catalytic domain, residues 1-246, TPR domain removed; pET28a recombinant in E. coli BL21(DE3), IMAC purified; recombinant MW 32,557 Da; homotetramer (SEC ~160 kDa)

[2] = test system: T2, Tde-SAS; test: as above; assay type: biochemical, Treponema denticola; conditions: 5 mM ATP, 10 mM MgCl2, pH 8.8, 37 °C, no added alarmone
T2 construct: gene TDE1711; full length, 410 aa; pET28a recombinant in E. coli BL21(DE3), IMAC purified; recombinant MW 51,318 Da; homotetramer (SEC ~220 kDa)

[3] = biological target: Tde-SAS_(1–246), catalytic domain of Treponema denticola small alarmone synthetase (Treponema denticola ATCC 35405); test: SEC; size-exclusion chromatography of the purified recombinant protein; oligomeric state from the apparent MW against the monomer's calculated MW; column and buffer not given
[4] = biological target: Treponema denticola small alarmone hydrolase Tde-SAH (TDE1690) (Treponema denticola ATCC 35405); test: as above
[5] = biological target: Treponema denticola small alarmone synthetase Tde-SAS (TDE1711) (Treponema denticola ATCC 35405); test: as above
[6] = substrate: Nc1nc2c(ncn2[C@@H]2O[C@H](COP(=O)(O)O)[C@@H](OP(=O)(O)OP(=O)(O)O)[C@H]2O)c(=O)[nH]1; test: pyrophosphatase-coupled continuous spectrophotometric phosphate-release assay (EnzChek, MESG/PNP); assay type: biochemical, Treponema denticola; conditions: 1 mM MnCl2, pH 8.4, 37 °C
[7] = substrate: Nc1nc2c(ncn2[C@@H]2O[C@H](COP(=O)(O)OP(=O)(O)O)[C@@H](OP(=O)(O)OP(=O)(O)O)[C@H]2O)c(=O)[nH]1; test: as above; assay type: biochemical, Treponema denticola; conditions: 1 mM MnCl2, pH 8.4, 37 °C
[8] = substrate: Nc1nc2c(ncn2[C@@H]2O[C@H](COP(=O)(O)OP(=O)(O)OP(=O)(O)O)[C@@H](OP(=O)(O)OP(=O)(O)O)[C@H]2O)c(=O)[nH]1; test: as above; assay type: biochemical, Treponema denticola; conditions: 1 mM MnCl2, pH 8.4, 37 °C

Molecule: Nc1nc2c(ncn2[C@@H]2O[C@H](COP(=O)(O)OP(=O)(O)O)[C@@H](O)[C@H]2O)c(=O)[nH]1 [GDP]
Km ([1]; read-out: Km(GDP)): 1.03 ± 0.3 mM | Km ([2]; read-out: Km(GDP)): 5.29 ± 2.61 mM

Molecule: Nc1nc2c(ncn2[C@@H]2O[C@H](COP(=O)(O)O)[C@@H](O)[C@H]2O)c(=O)[nH]1 [GMP]
Km ([1]; read-out: Km(GMP)): 3.44 ± 0.6 mM | Km ([2]; read-out: Km(GMP)): 11.7 ± 1.69 mM

Molecule: Nc1nc2c(ncn2[C@@H]2O[C@H](COP(=O)(O)OP(=O)(O)OP(=O)(O)O)[C@@H](O)[C@H]2O)c(=O)[nH]1 [GTP]
Km ([1]; read-out: Km(GTP)): 2.91 ± 0.75 mM | Km ([2]; read-out: Km(GTP)): 6.09 ± 1.01 mM

stoichiometry N [3]: 4
Molecule: Tde-SAS_(1–246), catalytic domain of Treponema denticola small alarmone synthetase (domain or fragment)

stoichiometry N [4]: 2
Molecule: Treponema denticola small alarmone hydrolase Tde-SAH (TDE1690) (enzyme)

stoichiometry N [5]: 4
Molecule: Treponema denticola small alarmone synthetase Tde-SAS (TDE1711) (enzyme)

B1: Tde-SAH (Treponema denticola ATCC 35405) (protein)
chain: MLSFDSNKEFALTRDLGVLKGIYLAPYMQVATALIGKARHAGGNMFRHQVDTMAILIDYGYIDSVLLKASLIHDVIEDIEDFNVNEILSIDSESGQVYELVLEVTKKKGQEKTEYLKNIIKNGSEKAKILKCADRISNMISLGFVTDSEFIERYCNETELYIFPIALEVNFEMYKELMALVVSRRQYLVECGYLEERVKKMRKAR
notes: full length (205 aa in the introduction, 210 aa in the abstract); pET28a recombinant in E. coli BL21(DE3), IMAC purified; recombinant MW 27,091 Da; homodimer (SEC ~44 kDa)
Km [6]: 0.12 mM | kcat [6]: 0.54 ± 0.04 s⁻¹ | Km [7]: 0.11 mM | kcat [7]: 0.79 ± 0.07 s⁻¹ | Km [8]: 0.21 mM
